Laboratory results as given in IntAct's records for PubMed 31515488.

B1: Nanos homolog 2 (Homo sapiens), P60321 (parent)
chain: MQLPPFDMWKDYFNLSQVVWALIASRGQRLETQEIEEPSPGPPLGQDQGLGAPGANGGLGTLCNFCKHNGESRHVYSSHQLKTPDGVVVCPILRHYVCPVCGATGDQAHTLKYCPLNGGQQSLYRRSGRNSAGRRVKR
B2: Microtubule-associated tumor suppressor candidate 2 (Homo sapiens), Q5JR59-3 (parent)
chain: MGHCCCKPYNCLQCLDKTNESALVKEKELSIELANIRDEVAFHTAKCEKLQKEKEELERRFEDEVKRLGWQQQAELQELEERLQLQFEAEMARLQEEHGDQLLSIRCQHQEQVEDLTASHDAALLEMENNHTVAITILQDDHDHKVQELMSTHELEKKELEENFEKLRLSLQDQVDTLTFQSQSLRDRARRFEEALRKNTEEQLEIALAPYQHLEEDMKSLKQVLEMKNQQIHEQEKKILELEKLAEKNIILEEKIQVLQQQNEDLKARIDQNTVVTRQLSEENANLQEYVEKETQEKKRLSRTNEELLWKLQTGDPTSPIKLSPTSPVYRGSSSGPSSPARVSTTPR
partner: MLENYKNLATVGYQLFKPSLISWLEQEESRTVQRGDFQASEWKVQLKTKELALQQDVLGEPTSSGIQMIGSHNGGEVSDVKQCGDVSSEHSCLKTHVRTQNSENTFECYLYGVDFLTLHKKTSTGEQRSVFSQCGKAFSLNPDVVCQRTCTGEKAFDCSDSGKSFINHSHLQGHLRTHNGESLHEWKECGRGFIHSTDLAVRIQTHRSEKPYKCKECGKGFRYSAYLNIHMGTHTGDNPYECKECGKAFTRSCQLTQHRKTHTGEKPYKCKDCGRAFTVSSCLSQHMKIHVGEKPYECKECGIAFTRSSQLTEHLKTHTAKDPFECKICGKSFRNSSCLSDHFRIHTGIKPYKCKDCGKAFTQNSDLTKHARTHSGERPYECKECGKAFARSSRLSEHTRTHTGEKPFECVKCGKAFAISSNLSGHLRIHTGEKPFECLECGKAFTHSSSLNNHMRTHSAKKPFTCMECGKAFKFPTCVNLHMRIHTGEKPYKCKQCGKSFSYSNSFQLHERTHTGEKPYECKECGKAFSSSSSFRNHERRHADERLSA
B3: Calcium-binding and coiled-coil domain-containing protein 2 (Homo sapiens), Q13137 (parent)
chain: MEETIKDPPTSAVLLDHCHFSQVIFNSVEKFYIPGGDVTCHYTFTQHFIPRRKDWIGIFRVGWKTTREYYTFMWVTLPIDLNNKSAKQQEVQFKAYYLPKDDEYYQFCYVDEDGVVRGASIPFQFRPENEEDILVVTTQGEVEEIEQHNKELCKENQELKDSCISLQKQNSDMQAELQKKQEELETLQSINKKLELKVKEQKDYWETELLQLKEQNQKMSSENEKMGIRVDQLQAQLSTQEKEMEKLVQGDQDKTEQLEQLKKENDHLFLSLTEQRKDQKKLEQTVEQMKQNETTAMKKQQELMDENFDLSKRLSENEIICNALQRQKERLEGENDLLKRENSRLLSYMGLDFNSLPYQVPTSDEGGARQNPGLAYGNPYSGIQESSSPSPLSIKKCPICKADDICDHTLEQQQMQPLCFNCPICDKIFPATEKQIFEDHVFCHSL
partner: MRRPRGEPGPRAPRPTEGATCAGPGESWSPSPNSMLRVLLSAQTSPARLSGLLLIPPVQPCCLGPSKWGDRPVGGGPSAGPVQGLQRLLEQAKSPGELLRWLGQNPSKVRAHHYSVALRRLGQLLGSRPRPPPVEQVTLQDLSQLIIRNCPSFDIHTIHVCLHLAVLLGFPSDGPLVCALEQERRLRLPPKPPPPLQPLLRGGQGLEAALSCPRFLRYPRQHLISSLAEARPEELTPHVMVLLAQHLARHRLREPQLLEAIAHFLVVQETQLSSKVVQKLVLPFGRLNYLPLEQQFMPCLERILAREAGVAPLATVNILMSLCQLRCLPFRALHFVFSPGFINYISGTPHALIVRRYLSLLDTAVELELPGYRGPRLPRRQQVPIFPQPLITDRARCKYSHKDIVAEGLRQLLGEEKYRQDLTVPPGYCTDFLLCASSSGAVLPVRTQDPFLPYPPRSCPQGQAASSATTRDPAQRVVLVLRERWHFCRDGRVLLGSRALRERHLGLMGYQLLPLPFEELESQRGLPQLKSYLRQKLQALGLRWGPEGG
B4: Alpha-ketoglutarate-dependent dioxygenase alkB homolog 4 (Homo sapiens), Q9NXW9 (parent)
chain: MAAAAAETPEVLRECGCKGIRTCLICERQRGSDPPWELPPAKTYRFIYCSDTGWAVGTEESDFEGWAFPFPGVMLIEDFVTREEEAELVRLMDRDPWKLSQSGRRKQDYGPKVNFRKQKLKTEGFCGLPSFSREVVRRMGLYPGLEGFRPVEQCNLDYCPERGSAIDPHLDDAWLWGERLVSLNLLSPTVLSMCREAPGSLLLCSAPSAAPEALVDSVIAPSRSVLCQEVEVAIPLPARSLLVLTGAARHQWKHAIHRRHIEARRVCVTFRELSAEFGPGGRQQELGQELLRIALSFQGRPV
B5: Prolyl 4-hydroxylase subunit alpha-3 (Homo sapiens), Q7Z4N8 (parent)
chain: MGPGARLAALLAVLALGTGDPERAAARGDTFSALTSVARALAPERRLLGLLRRYLRGEEARLRDLTRFYDKVLSLHEDSTTPVANPLLAFTLIKRLQSDWRNVVHSLEASENIRALKDGYEKVEQDLPAFEDLEGAARALMRLQDVYMLNVKGLARGVFQRVTGSAITDLYSPKRLFSLTGDDCFQVGKVAYDMGDYYHAIPWLEEAVSLFRGSYGEWKTEDEASLEDALDHLAFAYFRAGNVSCALSLSREFLLYSPDNKRMARNVLKYERLLAESPNHVVAEAVIQRPNIPHLQTRDTYEGLCQTLGSQPTLYQIPSLYCSYETNSNAYLLLQPIRKEVIHLEPYIALYHDFVSDSEAQKIRELAEPWLQRSVVASGEKQLQVEYRISKSAWLKDTVDPKLVTLNHRIAALTGLDVRPPYAEYLQVVNYGIGGHYEPHFDHATSPSSPLYRMKSGNRVATFMIYLSSVEAGGATAFIYANLSVPVVRNAALFWWNLHRSGEGDSDTLHAGCPVLVGDKWVANKWIHEYGQEFRRPCSSSPED
B6: Zinc finger protein RFP (Homo sapiens), P14373 (parent)
chain: MASGSVAECLQQETTCPVCLQYFAEPMMLDCGHNICCACLARCWGTAETNVSCPQCRETFPQRHMRPNRHLANVTQLVKQLRTERPSGPGGEMGVCEKHREPLKLYCEEDQMPICVVCDRSREHRGHSVLPLEEAVEGFKEQIQNQLDHLKRVKDLKKRRRAQGEQARAELLSLTQMEREKIVWEFEQLYHSLKEHEYRLLARLEELDLAIYNSINGAITQFSCNISHLSSLIAQLEEKQQQPTRELLQDIGDTLSRAERIRIPEPWITPPDLQEKIHIFAQKCLFLTESLKQFTEKMQSDMEKIQELREAQLYSVDVTLDPDTAYPSLILSDNLRQVRYSYLQQDLPDNPERFNLFPCVLGSPCFIAGRHYWEVEVGDKAKWTIGVCEDSVCRKGGVTSAPQNGFWAVSLWYGKEYWALTSPMTALPLRTPLQRVGIFLDYDAGEVSFYNVTERCHTFTFSHATFCGPVRPYFSLSYSGGKSAAPLIICPMSGIDGFSGHVGNHGHSMETSP
partner: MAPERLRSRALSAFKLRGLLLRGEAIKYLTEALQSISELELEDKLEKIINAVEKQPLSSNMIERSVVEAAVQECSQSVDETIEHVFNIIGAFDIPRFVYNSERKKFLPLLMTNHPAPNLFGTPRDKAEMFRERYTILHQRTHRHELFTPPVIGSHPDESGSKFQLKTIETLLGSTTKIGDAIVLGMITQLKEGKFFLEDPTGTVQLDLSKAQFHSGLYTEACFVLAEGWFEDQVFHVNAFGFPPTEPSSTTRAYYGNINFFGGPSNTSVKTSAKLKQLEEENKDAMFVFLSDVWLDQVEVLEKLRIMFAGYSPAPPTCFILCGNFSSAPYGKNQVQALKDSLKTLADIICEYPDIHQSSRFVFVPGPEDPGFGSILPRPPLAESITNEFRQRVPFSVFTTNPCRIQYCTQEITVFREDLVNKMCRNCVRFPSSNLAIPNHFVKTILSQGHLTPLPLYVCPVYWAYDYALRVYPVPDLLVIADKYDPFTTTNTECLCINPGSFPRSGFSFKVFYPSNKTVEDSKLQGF

Variants of: B1
Settings: with magac_human MAGEA12, P43365
Chain of magac_human MAGEA12, P43365 (P43365 whole entry): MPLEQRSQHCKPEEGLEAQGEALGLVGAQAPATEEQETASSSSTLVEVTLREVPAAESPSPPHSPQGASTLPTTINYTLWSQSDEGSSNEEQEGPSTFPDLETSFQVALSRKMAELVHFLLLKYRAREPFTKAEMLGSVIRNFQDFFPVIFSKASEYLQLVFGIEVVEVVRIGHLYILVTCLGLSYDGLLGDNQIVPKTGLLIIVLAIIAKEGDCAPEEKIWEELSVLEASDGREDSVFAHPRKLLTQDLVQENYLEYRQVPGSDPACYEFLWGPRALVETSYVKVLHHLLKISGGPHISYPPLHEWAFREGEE

effect of a mutation on the interaction	Variant
with no effect	H68Q
with no effect	F13L
with no effect	R73C

Variants of: B1
Settings: with ccdb1_human CCNDBP1, O95273
Chain of ccdb1_human CCNDBP1, O95273 (O95273 whole entry): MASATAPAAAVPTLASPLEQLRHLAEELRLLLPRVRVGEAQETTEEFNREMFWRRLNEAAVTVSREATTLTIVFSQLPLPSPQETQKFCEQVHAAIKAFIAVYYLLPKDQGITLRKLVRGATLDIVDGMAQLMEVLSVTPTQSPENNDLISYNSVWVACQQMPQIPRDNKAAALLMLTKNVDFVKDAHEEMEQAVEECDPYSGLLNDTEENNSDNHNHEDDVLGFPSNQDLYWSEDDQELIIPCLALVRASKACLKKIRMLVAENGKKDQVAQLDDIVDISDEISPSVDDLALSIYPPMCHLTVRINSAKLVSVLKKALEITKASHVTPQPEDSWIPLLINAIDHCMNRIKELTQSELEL

effect of a mutation on the interaction	Variant
with no effect	H68Q
with no effect	F13L
with no effect	R73C

Variants of: B2
Settings: with zn266_human ZNF266, Q14584

effect of a mutation on the interaction	Variant
with no effect	A89V

Variants of: B3
Settings: with fastk_human FASTK

effect of a mutation on the interaction	Variant
with no effect	V248A

Variants of: B4
Settings: with dtx2_human DTX2, Q86UW9
Chain of dtx2_human DTX2, Q86UW9 (Q86UW9 whole entry): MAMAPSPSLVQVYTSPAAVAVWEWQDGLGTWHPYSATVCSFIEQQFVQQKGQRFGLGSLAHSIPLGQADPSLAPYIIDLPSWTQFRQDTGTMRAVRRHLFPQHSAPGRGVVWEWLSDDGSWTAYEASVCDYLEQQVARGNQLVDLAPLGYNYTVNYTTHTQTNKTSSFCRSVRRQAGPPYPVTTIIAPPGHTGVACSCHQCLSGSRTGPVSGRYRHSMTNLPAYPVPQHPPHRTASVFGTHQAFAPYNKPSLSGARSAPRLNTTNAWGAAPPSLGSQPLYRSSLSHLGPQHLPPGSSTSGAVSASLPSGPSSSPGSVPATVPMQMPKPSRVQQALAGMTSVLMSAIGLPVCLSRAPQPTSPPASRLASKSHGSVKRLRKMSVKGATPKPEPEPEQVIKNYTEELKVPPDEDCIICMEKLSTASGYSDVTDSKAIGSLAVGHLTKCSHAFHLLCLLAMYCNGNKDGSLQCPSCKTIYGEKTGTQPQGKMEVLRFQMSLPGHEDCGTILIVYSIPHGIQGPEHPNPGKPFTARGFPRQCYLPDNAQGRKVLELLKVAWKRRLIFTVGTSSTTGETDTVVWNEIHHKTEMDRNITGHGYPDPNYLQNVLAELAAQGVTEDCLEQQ

effect of a mutation on the interaction	Variant
with no effect	R239C

Variants of: B5
Settings: with maga2_human MAGEA2, P43356
Chain of maga2_human MAGEA2, P43356 (P43356 whole entry): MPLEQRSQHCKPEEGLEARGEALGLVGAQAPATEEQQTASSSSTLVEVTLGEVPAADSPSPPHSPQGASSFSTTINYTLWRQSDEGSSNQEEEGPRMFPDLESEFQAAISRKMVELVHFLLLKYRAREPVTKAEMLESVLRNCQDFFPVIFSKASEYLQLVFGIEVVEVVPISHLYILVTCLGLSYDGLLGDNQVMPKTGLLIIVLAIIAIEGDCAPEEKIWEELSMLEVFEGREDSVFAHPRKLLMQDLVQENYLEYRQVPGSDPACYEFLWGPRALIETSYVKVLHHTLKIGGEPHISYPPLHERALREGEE

effect of a mutation on the interaction	Variant
disrupting interaction strength	S378L

Variants of: B5
Settings: with nutm1_human NUTM1, Q86Y26
Chain of nutm1_human NUTM1, Q86Y26 (Q86Y26 whole entry): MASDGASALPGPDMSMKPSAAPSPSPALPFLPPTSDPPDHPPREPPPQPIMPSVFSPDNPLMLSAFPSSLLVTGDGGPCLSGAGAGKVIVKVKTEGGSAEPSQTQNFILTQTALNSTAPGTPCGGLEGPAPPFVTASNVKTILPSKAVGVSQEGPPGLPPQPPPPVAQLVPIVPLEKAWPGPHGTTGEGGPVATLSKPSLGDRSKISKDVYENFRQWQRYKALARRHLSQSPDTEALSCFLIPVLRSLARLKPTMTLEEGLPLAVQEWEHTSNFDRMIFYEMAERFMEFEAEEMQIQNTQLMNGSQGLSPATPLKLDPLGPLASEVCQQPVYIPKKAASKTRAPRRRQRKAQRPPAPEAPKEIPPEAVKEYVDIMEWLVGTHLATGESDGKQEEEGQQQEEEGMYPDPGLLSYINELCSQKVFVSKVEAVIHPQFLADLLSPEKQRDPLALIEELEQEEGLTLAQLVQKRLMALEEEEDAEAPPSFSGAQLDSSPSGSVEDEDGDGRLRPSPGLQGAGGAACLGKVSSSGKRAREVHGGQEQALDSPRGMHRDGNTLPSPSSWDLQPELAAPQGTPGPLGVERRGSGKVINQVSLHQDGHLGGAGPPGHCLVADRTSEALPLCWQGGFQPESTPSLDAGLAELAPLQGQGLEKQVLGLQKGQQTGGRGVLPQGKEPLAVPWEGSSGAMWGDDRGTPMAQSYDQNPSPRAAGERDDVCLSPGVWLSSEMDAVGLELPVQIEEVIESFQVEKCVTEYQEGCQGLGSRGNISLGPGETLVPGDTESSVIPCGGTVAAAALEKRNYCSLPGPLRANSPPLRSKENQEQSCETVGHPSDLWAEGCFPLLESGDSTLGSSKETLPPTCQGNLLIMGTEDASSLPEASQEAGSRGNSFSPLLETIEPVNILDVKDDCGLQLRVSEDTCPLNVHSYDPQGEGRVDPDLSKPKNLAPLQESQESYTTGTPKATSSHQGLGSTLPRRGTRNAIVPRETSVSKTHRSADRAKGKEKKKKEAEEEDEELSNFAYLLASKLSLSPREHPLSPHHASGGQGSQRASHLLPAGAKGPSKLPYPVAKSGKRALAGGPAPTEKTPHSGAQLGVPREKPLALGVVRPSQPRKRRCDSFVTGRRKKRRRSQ

effect of a mutation on the interaction	Variant
disrupting interaction strength	S378L

Variants of: B6
Settings: with dpoe2_human POLE2, P56282

effect of a mutation on the interaction	Variant
with no effect	N355S
